Experimental data taken from PMC10082787, “The IgG4 hinge with CD28 transmembrane domain improves VHH-based CAR T cells targeting a membrane-distal epitope of GPC1 in pancreatic cancer” (Nature Communications, 2023).

T1: GPC1 peptide 53 (Homo sapiens, UniProt P35052)
T1 construct: peptide no; 53 of 53 overlapping GPC1 peptides, 18 amino acids long, 9 overlapped with the adjacent peptide; source: synthetic peptide (Genscript)
T1 chain: DGCLDDLCSRKVSRKSSS

T2: GPC1 peptide 14 (Homo sapiens, UniProt P35052)
T2 construct: peptide no; 14 of 53 overlapping GPC1 peptides, 18 amino acids long, 9 overlapped with the adjacent peptide; source: synthetic peptide (Genscript)
T2 chain: FRDLYSELRLYYRGANLH

T3: GPC1 peptide 15 (Homo sapiens, UniProt P35052)
T3 construct: peptide no; 15 of 53 overlapping GPC1 peptides, 18 amino acids long, 9 overlapped with the adjacent peptide; source: synthetic peptide (Genscript)
T3 chain: LYYRGANLHLEETLAEFW

B1: HM2 mouse monoclonal antibody (antibody, V domains shown)
VH: EVQLQQSGAELVRPGASVKLSCTASGFNIKDDYMHWVKQRPEQGLEWIGWIDPENGDTEYASKFQGKATITADTSSNTAYLQLSSLTSEDTAVYYCTRSSVGYWGQGTTLTVSS
VL: DVVMTQTPLSLPVSLGDQASISCRSSQSLVHSNGNTYLHWYLQKPGQSPKLLIYKVSNRFSGVPDRFSGSGSGTYFTLKISRVEAEDLGVYFCSQRTHVPYTFGGGTKLEIK
notes: heavy chain of mouse mAb HM2; light chain of mouse mAb HM2; Raised by immunising mice with the C-lobe region of GPC1; also called HM2 mAb; HM2 clone; source: mouse hybridoma; in supernatant and purified
B2: clone 1–12-IgG4H-CD28TM CAR (other)
VH: AVTLDESGGGLQTPGRALSLVCKASGFTFSRYAMYWVRQAPGKGLEFVAGIGNTGRYTGYGSAVKGRATISRDSGQSTVRLQLNNLRAEDTGNYYCAKSVSPYCCDAADIDAWGHGTEVIVST
VL: ALTQPASVSANPGETVKITCSGGSSGYAYGWYQQKSPGSAPVTLLYSNNNRPSDIPSRFSGSKSGSTATLTITGVQAEDEAVYFCGSVDSSSYAGIFGAGTTLTV
notes: scFv of the anti-GPC1 mAb clone 1–12; CD28 transmembrane domain (CD28TM); 4-1BB costimulatory domain; intracellular CD3ζ; also called clone 1–12 CAR; source: human T cells from PBMCs, lentivirally transduced; on cells
B3: D4 dromedary camel VHH nanobody (VHH)
VHH: QVQLVESGGGLVQPGGSLRLSCVASGYSYSIGYMAWFRQAPGKERAWVASRYTGDGGAVFDDAVKGRFTTSQESAGNTFDLQMDSLKPEDTAMYYCAAKGPGFGRWEYWGRGTQVTVSS
notes: D4 VHH; His tag used to load the Ni-NTA biosensor; FLAG used for detection in ELISA and flow cytometry; also called D4 antibody; D4 VHH
B4: GPC1 protein (negative stain EM) (natural protein)
chain: DPASKSRSCGEVRQIYGAKGFSLSDVPQAEISGEHLRICPQGYTCCTSEMEENLANRSHAELETALRDSSRVLQAMLATQLRSFDDHFQHLLNDSERTLQATFPGAFGELYTQNARAFRDLYSELRLYYRGANLHLEETLAEFWARLLERLFKQLHPQLLLPDDYLDCLGKQAEALRPFGEAPRELRLRATRAFVAARSFVQGLGVASDVVRKVAQVPLGPECSRAVMKLVYCAHCLGVPGARPCPDYCRNVLKGCLANQADLDAEWRNLLDSMVLITDKFWGTSGVESVIGSVHTWLAEAINALQDNRDTLTAKVIQGCGNPKVNPQGPGPEEKRRRGKLAPRERPPSGTLEKLVSEAKAQLRDVQDFWISLPGTLCSEKMALSTASDDRCWNGMARGRYLPEVMGDGLANQINNPEVEVDITKPDMTIRQQIMQLKIMTNRLRSAYNGNDVDFQDASDDGSGSGSGDGCLDDLCSRKVSRKSSSSRTPLTHALPGLSEQEGQKTS
notes: glypican-1 protein mixed 1:1 with HM2 Fab or D4-LR for negative stain EM; It may be the His-tagged or the hFc-fused protein of the other experiments
B5: recombinant human GPC1-hFc protein (Fc fusion)
chain: B4 chain
notes: glypican-1, human, fused to human Fc

Experiments:
GPC1 peptide 53 = molecular target: T1, GPC1 peptide 53; experiment: ELISA; 53 overlapping 18-mer GPC1 peptides coated at 5 μg/ml in PBS overnight; 1 μg/ml of HM2 or D4 added; conditions: both partners purified
His-tagged GPC1 protein = molecular target: T4, His-tagged GPC1 protein (Homo sapiens, UniProt P35052); experiment: BLI; Octet RED96; His-tagged GPC1 immobilised on Ni-NTA biosensor, HM2 in solution; association 600 s, dissociation 1800 s; conditions: both partners purified
T4 construct: glypican-1, human, His-tagged protein immobilised on the Ni-NTA biosensor; also called human GPC1

[1] = molecular target: T5, human glypican-2 (GPC2), recombinant protein (Homo sapiens (Human)., UniProt Q8N158); experiment: ELISA; plates coated with human GPC1 through GPC6; mouse hybridoma supernatant with 1 μg/ml of each mAb; detected with goat anti-mouse IgG-HRP; conditions: one partner purified
T5 construct: glypican-2, human, recombinant protein coated on ELISA plates; source: bought: R&D Systems

[2] = molecular target: T6, human glypican-3 (GPC3), recombinant protein (Homo sapiens, UniProt P51654); experiment: as above; conditions: one partner purified
T6 construct: glypican-3, human, recombinant protein coated on ELISA plates; source: bought: R&D Systems

[3] = molecular target: T7, human glypican-4 (GPC4), recombinant protein (Homo sapiens, UniProt O75487); experiment: as above; conditions: one partner purified
T7 construct: glypican-4, human, recombinant protein coated on ELISA plates; source: bought: R&D Systems

[4] = molecular target: T8, human glypican-5 (GPC5), recombinant protein (Homo sapiens, UniProt P78333); experiment: as above; conditions: one partner purified
T8 construct: glypican-5, human, recombinant protein coated on ELISA plates; source: bought: R&D Systems

[5] = molecular target: T9, human glypican-6 (GPC6), recombinant protein (Homo sapiens (Human)., UniProt Q9Y625); experiment: as above; conditions: one partner purified
T9 construct: glypican-6, human, recombinant protein coated on ELISA plates; source: bought: R&D Systems

[6] = molecular target: B5; experiment: flow cytometry on cells; CAR T cells stained with GPC1-hFc at 5 μg/ml and goat anti-human IgG-PE; conditions: one partner purified
[7] = molecular target: B5; experiment: BLI; Octet RED96; His-tagged D4 loaded on Ni-NTA biosensor, serially diluted human GPC1-hFc in solution; conditions: both partners purified
GPC1 peptide 14 = molecular target: T2, GPC1 peptide 14; experiment: ELISA; 53 overlapping 18-mer GPC1 peptides coated at 5 μg/ml in PBS overnight; 1 μg/ml of HM2 or D4 added; conditions: both partners purified
GPC1 peptide 15 = molecular target: T3, GPC1 peptide 15; experiment: as above; conditions: both partners purified
[8] = molecular target: T5, human glypican-2 (GPC2), recombinant …; experiment: ELISA; D4 nanobody at 1 μg/ml on human GPC1 through GPC6 and mouse GPC1 proteins; detected with anti-FLAG-HRP; the legend calls it monoclonal phage ELISA; conditions: both partners purified
[9] = molecular target: T6, human glypican-3 (GPC3), recombinant …; experiment: as above; conditions: both partners purified
[10] = molecular target: T7, human glypican-4 (GPC4), recombinant …; experiment: as above; conditions: both partners purified
[11] = molecular target: T8, human glypican-5 (GPC5), recombinant …; experiment: as above; conditions: both partners purified
[12] = molecular target: T9, human glypican-6 (GPC6), recombinant …; experiment: as above; conditions: both partners purified
[13] = molecular target: T10, mouse glypican-1 (GPC1) protein (Mus musculus (Mouse)., UniProt Q9QZF2); experiment: as above; conditions: both partners purified
T10 construct: glypican-1, mouse, protein used in the ELISA of D4; also called mouse GPC1; murine GPC1

D4-LR immunotoxin = D4-LR immunotoxin (Camelus dromedarius | Pseudomonas); experiment: negative stain EM; conditions: both partners purified
D4-CD8H-CD8TM CAR = molecular target: T11, D4-CD8H-CD8TM CAR (Camelus dromedarius | ); experiment: flow cytometry on cells; CAR T cells stained with GPC1-hFc at 5 μg/ml and goat anti-human IgG-PE; conditions: one partner purified
T11 construct: CD8 hinge (CD8H), 45 amino acids; CD8 transmembrane region (CD8TM); 4-1BB costimulatory domain; intracellular CD3ζ; also called D4 CAR; pMH305; source: human T cells from PBMCs, lentivirally transduced; on cells and in lysate

D4-CD8H-CD28TM CAR = molecular target: T12, D4-CD8H-CD28TM CAR (Camelus dromedarius | ); experiment: as above; conditions: one partner purified
T12 construct: CD8 hinge (CD8H), 45 amino acids; CD28 transmembrane domain (CD28TM); 4-1BB costimulatory domain; intracellular CD3ζ; also called pMH402; source: human T cells from PBMCs, lentivirally transduced; on cells and in lysate

D4-IgG4H-CD8TM CAR = molecular target: T13, D4-IgG4H-CD8TM CAR (Camelus dromedarius | human | ); experiment: as above; conditions: one partner purified
T13 construct: CD8 transmembrane region (CD8TM); 4-1BB costimulatory domain; intracellular CD3ζ; Dimer by non-reducing western blot; also called pMH382; source: human T cells from PBMCs, lentivirally transduced; on cells and in lysate

D4-IgG4H-CD28TM CAR = molecular target: T14, D4-IgG4H-CD28TM CAR (Camelus dromedarius | human | ); experiment: as above; conditions: one partner purified
T14 construct: CD28 transmembrane domain (CD28TM); 4-1BB costimulatory domain; intracellular CD3ζ; Dimer by non-reducing western blot; also called D4-IgG4H only CAR; D4-IgG4H CAR; source: human T cells from PBMCs, lentivirally transduced; on cells and in lysate

T5 sequence (Q8N158 24-554): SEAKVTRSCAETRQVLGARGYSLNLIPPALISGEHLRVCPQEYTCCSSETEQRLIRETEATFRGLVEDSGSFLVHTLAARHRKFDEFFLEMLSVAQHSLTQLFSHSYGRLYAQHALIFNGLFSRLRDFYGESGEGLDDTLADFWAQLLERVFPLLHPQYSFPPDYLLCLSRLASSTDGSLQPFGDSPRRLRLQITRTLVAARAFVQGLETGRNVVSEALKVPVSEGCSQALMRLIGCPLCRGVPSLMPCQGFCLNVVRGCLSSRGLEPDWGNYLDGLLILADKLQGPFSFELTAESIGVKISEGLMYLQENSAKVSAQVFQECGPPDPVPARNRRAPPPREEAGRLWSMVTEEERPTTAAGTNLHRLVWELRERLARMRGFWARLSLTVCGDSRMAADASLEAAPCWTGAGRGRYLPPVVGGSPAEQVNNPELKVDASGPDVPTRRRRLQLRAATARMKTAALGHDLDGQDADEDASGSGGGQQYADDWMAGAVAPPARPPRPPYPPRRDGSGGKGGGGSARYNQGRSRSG
T7 sequence (O75487 19-529): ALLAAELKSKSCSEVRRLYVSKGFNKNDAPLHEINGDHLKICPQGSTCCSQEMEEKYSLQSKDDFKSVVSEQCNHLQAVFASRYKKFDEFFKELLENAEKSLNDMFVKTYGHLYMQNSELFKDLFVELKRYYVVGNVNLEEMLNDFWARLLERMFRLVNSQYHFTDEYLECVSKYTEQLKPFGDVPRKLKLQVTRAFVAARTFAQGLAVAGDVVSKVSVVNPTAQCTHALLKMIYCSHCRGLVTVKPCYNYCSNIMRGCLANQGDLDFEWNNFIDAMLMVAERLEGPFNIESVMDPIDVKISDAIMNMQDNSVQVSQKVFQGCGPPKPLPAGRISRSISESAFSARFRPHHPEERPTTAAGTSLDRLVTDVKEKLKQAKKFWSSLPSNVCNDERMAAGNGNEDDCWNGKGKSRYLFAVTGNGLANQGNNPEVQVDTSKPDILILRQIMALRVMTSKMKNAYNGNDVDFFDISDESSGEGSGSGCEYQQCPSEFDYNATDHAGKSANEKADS
T9 sequence (Q9Y625 24-529): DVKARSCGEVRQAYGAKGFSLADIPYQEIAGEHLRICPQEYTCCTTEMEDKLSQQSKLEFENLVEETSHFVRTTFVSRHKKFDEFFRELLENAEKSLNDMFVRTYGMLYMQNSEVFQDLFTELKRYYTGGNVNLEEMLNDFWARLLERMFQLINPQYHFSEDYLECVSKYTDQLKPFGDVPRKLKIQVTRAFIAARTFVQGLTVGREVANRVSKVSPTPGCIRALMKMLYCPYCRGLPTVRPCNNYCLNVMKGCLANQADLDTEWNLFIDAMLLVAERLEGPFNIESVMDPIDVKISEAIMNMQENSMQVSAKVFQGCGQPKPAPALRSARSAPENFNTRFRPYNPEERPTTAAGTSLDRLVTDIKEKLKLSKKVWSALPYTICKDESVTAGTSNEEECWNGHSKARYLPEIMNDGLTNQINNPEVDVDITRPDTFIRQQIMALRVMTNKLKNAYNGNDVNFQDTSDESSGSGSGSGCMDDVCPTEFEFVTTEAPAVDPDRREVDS
T8 sequence (P78333 25-572): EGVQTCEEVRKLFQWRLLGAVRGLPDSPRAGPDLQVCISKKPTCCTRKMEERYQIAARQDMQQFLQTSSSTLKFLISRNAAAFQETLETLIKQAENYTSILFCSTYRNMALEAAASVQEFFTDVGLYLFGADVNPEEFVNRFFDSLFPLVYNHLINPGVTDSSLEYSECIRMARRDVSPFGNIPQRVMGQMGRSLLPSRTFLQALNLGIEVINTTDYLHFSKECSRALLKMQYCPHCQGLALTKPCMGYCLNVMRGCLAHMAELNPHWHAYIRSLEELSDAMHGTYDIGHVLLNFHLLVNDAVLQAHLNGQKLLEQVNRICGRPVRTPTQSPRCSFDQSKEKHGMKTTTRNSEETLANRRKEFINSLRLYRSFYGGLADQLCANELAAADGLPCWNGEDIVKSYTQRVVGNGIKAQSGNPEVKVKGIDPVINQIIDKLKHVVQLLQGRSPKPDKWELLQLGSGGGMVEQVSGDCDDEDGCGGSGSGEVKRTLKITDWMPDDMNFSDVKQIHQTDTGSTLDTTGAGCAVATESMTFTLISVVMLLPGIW
T6 sequence (P51654 25-580): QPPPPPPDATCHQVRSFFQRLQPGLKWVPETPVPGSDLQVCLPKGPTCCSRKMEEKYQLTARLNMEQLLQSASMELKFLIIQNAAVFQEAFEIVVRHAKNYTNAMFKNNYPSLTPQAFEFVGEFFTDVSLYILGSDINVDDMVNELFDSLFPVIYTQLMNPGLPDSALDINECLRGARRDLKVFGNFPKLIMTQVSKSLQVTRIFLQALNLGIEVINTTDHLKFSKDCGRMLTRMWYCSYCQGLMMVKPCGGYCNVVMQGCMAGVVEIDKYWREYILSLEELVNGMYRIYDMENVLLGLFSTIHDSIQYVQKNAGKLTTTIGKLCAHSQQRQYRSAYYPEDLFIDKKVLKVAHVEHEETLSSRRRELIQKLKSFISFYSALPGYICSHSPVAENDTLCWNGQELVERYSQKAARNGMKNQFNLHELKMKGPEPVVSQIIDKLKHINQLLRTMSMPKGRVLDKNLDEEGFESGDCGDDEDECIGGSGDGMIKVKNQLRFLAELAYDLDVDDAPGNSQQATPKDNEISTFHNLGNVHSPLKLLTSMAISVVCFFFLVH
T4 sequence (P35052 whole entry, looked up): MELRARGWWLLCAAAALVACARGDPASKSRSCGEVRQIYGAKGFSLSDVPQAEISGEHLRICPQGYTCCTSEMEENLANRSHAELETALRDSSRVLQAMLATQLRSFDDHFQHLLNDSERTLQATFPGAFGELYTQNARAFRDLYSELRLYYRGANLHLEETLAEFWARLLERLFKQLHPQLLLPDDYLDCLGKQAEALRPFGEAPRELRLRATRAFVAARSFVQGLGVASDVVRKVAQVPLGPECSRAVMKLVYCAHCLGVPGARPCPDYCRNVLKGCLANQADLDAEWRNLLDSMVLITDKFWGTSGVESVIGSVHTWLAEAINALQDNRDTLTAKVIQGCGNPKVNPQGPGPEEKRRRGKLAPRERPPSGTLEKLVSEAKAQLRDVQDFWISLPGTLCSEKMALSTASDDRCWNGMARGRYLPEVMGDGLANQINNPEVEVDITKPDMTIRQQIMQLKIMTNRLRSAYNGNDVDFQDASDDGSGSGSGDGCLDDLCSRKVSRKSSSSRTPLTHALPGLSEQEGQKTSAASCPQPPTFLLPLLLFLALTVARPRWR

**Q.** Does B1 bind (GPC1 peptide 53)?
**A.** binds

**Q.** What about the Kd (His-tagged GPC1 protein) of the same binder?
**A.** 0.4 nM

**Q.** Does B1 bind [1]?
**A.** no binding (tested: 1 μg/ml)

**Q.** Does B1 bind [2]?
**A.** no binding (tested: 1 μg/ml)

**Q.** Does B1 bind [3]?
**A.** no binding (tested: 1 μg/ml)

**Q.** Does B1 bind [4]?
**A.** no binding (tested: 1 μg/ml)

**Q.** Does B1 bind [5]?
**A.** no binding (tested: 1 μg/ml)

**Q.** Does B2 bind [6]?
**A.** binds

**Q.** B3 was tested. Which Kd [7] did it give?
**A.** 0.7 nM

**Q.** Does B3 bind (GPC1 peptide 14)?
**A.** binds

**Q.** Does B3 bind (GPC1 peptide 15)?
**A.** binds

**Q.** Does B3 bind [8]?
**A.** no binding (tested: 1 μg/ml)

**Q.** Does B3 bind [9]?
**A.** no binding (tested: 1 μg/ml)

**Q.** Does B3 bind [10]?
**A.** no binding (tested: 1 μg/ml)

**Q.** Does B3 bind [11]?
**A.** no binding (tested: 1 μg/ml)

**Q.** Does B3 bind [12]?
**A.** no binding (tested: 1 μg/ml)

**Q.** Does B3 bind [13]?
**A.** binds

**Q.** Does B4 bind (D4-LR immunotoxin)?
**A.** binds

**Q.** Does B5 bind (D4-CD8H-CD8TM CAR)?
**A.** binds

**Q.** Does B5 bind (D4-CD8H-CD28TM CAR)?
**A.** binds

**Q.** Does B5 bind (D4-IgG4H-CD8TM CAR)?
**A.** binds

**Q.** Does B5 bind (D4-IgG4H-CD28TM CAR)?
**A.** binds
